Assays:
[1] = molecular target: T1, human CD33 on primary human dendritic cells (human, UniProt P20138 18-364); test: cell-based or functional assay
[2] = molecular target: T2, recombinant cynomolgus CD33 protein (NovoProtein) (cynomolgus); test: ELISA, plate coated with recombinant CD33
T2 construct: Bought protein; also called cyno CD33

[3] = molecular target: T3, recombinant human CD33 protein (Sino Biologicals) (human, UniProt P20138 18-259); test: ELISA, plate coated with recombinant CD33
T3 construct: Bought protein; also called recombinant CD33

[4] = molecular target: T1, human CD33 on primary human dendritic …; test: cell-based or functional assay; remark: listed apart in the source

T2 sequence (chain, as listed by the source limits assumed): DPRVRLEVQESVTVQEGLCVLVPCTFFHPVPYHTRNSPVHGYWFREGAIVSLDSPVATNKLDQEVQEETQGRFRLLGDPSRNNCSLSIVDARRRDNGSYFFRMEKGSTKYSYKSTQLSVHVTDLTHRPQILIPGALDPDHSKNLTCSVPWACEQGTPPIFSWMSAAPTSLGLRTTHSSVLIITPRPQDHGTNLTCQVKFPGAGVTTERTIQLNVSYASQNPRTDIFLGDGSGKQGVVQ
T1 sequence (P20138 18-364): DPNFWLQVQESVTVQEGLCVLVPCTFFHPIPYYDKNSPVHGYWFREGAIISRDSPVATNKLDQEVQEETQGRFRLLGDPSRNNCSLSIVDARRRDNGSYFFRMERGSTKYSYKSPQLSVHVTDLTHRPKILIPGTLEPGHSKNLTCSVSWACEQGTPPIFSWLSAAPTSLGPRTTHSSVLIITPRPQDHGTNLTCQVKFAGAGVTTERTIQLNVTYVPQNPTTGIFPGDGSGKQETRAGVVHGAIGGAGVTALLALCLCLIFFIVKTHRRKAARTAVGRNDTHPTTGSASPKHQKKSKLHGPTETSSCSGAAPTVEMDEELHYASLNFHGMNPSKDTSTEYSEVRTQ
T3 sequence (P20138 18-259 limits assumed): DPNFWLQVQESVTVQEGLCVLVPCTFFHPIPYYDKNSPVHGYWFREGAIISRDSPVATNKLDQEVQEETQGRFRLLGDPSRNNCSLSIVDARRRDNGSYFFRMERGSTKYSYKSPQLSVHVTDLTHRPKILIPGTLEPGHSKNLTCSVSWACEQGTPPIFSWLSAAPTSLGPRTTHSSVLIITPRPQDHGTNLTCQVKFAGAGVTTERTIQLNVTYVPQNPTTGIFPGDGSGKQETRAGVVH

Binder	Fold increase in potency compared to 6C7H5 [1]	Receptor downregulation, (EC50) (pM) [1]	EC50 [2]	Relative maximal binding (cyno/human) [2]	Relative potency (human/cyno) [2]	EC50 [3]	Fold change in potency from IgG1 [4]	Maximal downregulation (% CD33 remaining) [4]	Receptor downregulation, (pM, EC50) [4]
anti-CD33 antibody 6C7H37 (antibody, V domains shown, VH/VL only) VH: EVQLVESGGGLVQPGGSLRLSCAASGFTFSEYAMLWVRQAPGKGLEWVGEIRLKSNNYVTNYAASVKGRFTISRDDSKNSVYLQMNSLKTEDTGVYYCTRAGYYVPFTYWGQGTLVTVSS VL: QLMLTQSPSASASLGASVKLTCTLSSQHSTYTIEWYQQQPGKGPRYLMELKKEGSHSTGDGIPDRFSGSSSGAERYLTISSLQSEDEADYYCGVGHTIKEQFVYVFGGGTKLTVL	0.7 fold	59.3 pM	5.62 nM	0.45	0.05	0.26 nM			
6C7H8 IgG1 LALAPS (antibody, V domains shown) VH: EVQLVESGGGLVQPGGSLRLSCAGSGFTFSNYCMNWVRQAPGKGLEWVAEIRLKSNNYVTNYAASVKGRFTISRDDSKNSVYLQMNSLKTEDTGVYYCTRAGYYVPFAYWGQGTLVTVSS VL: QLVLTQSPSASASLGASVKLTCTLSSQHSTYTIEWYQQQPEKGPRYLMELKKEGSHSTGDGIPDRFSGSSSGAERYLTISSLQSEDEADYYCGVGDTIKEQFVYVFGGGTKLTVL							0.93 fold	67.4 % CD33 remaining	83.7 pM
6C7H10 IgG2 (antibody) chain 1: EVQLVESGGGLVQPGGSLRLSCAASGFTFSEYAMNWVRQAPGKGLEWVGEIRLKSNNYVTNYAASVKGRFTISRDDSKNSVYLQMNSLKTEDTGVYYCTRAGYYVPFAYWGQGTLVTVSSASTKGPSVFPLAPCSRSTSESTAALGCLVKDYFPEPVTVSWNSGALTSGVHTFPAVLQSSGLYSLSSVVTVPSSNFGTQTYTCNVDHKPSNTKVDKTVERKCCVECPPCPAPPVAGPSVFLFPPKPKDTLMISRTPEVTCVVVDVSHEDPEVQFNWYVDGVEVHNAKTKPREEQFNSTFRVVSVLTVVHQDWLNGKEYKCKVSNKGLPAPIEKTISKTKGQPREPQVYTLPPSREEMTKNQVSLTCLVKGFYPSDIAVEWESNGQPENNYKTTPPMLDSDGSFFLYSKLTVDKSRWQQGNVFSCSVMHEALHNHYTQKSLSLSPGK chain 2: QLVLTQSPSASASLGASVKLTCTLSSQHSTYTIEWYQQQPEKGPRYLMELKKEGSHSTGDGIPDRFSGSSSGAERYLTISSLQSEDEADYYCGVGDTIKEQFVYVFGGGTKLTVL							1.01 fold	24.2 % CD33 remaining	772 pM
anti-CD33 antibody 6C7H50 (antibody, V domains shown, VH/VL only) VH: EVQLVESGGGLVQPGGSLRLSCAASGFTFSEYDMLWVRQAPGKGLEWVGEIRLKSNNYVTNYAASVKGRFTISRDDSKNSVYLQMNSLKTEDTGVYYCTRAGYYVPFAYWGQGTLVTVSS VL: QLMLTQSPSASASLGASVKLTCTLSSQHSTYTIEWYQQQPGKGPRYLMELKKEGSHSTGDGIPDRFSGSSSGAERYLTISSLQSEDEADYYCGVGHTIKEQFVYVFGGGTKLTVL	0.7 fold	57.8 pM		0.21		0.22 nM			
anti-CD33 antibody 6C7H47 (antibody, V domains shown, VH/VL only) VH: EVQLVESGGGLVQPGGSLRLSCAGSGFTFSNYEMNWVRQAPGKGLEWVAEIRLKSNNYVTNYAASVKGRFTISRDDSKNSVYLQMNSLKTEDTGVYYCTRAGYYVPFAYWGQGTLVTVSS VL: QLMLTQSPSASASLGASVKLTCTLSSQHSTYTIEWYQQQPGKGPRYLMELKKEGSHSTGDGIPDRFSGSSSGAERYLTISSLQSEDEADYYCGVGHTIKEQFVYEFGGGTKLTVL	0.7 fold	59 pM	0.42 nM	0.43	0.52	0.22 nM			
anti-CD33 antibody 6C7H52 (antibody, V domains shown, VH/VL only) VH: EVQLVESGGGLVQPGGSLRLSCAASGFTFSEYAMLWVRQAPGKGLEWVGEIRLKSNNYVTNYAASVKGRFTISRDDSKNSVYLQMNSLKTEDTGVYYCTRAGYYVPFAYWGQGTLVTVSS VL: QLMLTQSPSASASLGASVKLTCTLSSQHSTYTIEWYQQQPGKGPRYLMELKKEGSHSTGDGIPDRFSGSSSGAERYLTISSLQSEDEADYYCGVGHTIKEQFVYVFGGGTKLTVL	0.9 fold	47.7 pM	1.7 nM	0.47	0.14	0.23 nM			

Other lines, results leading:

Fold increase in potency compared to 6C7H5 [1]	Receptor downregulation, (EC50) (pM) [1]	EC50 [2]	Relative maximal binding (cyno/human) [2]	Relative potency (human/cyno) [2]	EC50 [3]	Fold change in potency from IgG1 [4]	Maximal downregulation (% CD33 remaining) [4]	Receptor downregulation, (pM, EC50) [4]	Binder
0.7 fold	61.7 pM	16.8 nM	0.23	0.01	0.19 nM				anti-CD33 antibody 6C7H46 (antibody, V domains shown, VH/VL only) VH: EVQLVESGGGLVQPGGSLRLSCAASGFTFSEYAMLWVRQAPGKGLEWVGEIRLKSNNYVTNYAASVKGRFTISRDDSKNSVYLQMNSLKTEDTGVYYCTRAGYYVPFAYWGQGTLVTVSS VL: QPMLTQSPSASASLGASVKLTCTLSSQHSTYTIEWYQQQPGKGPRYLMELKKEGSHSTGDGIPDRFSGSSSGAERYLTISSLQSEDEADYYCGVGLTIKEQFVYVFGGGTKLTVL
0.9 fold	45.7 pM		0.09		0.18 nM				anti-CD33 antibody 6C7H44 (antibody, V domains shown, VH/VL only) VH: EVQLVESGGGLVQPGGSLRLSCAASGFTFSEYDMLWVRQAPGKGLEWVGEIRLKSNNYVTNYAASVKGRFTISRDDSKNSVYLQMNSLKTEDTGVYYCTRAGYYVPFAYWGQGTLVTVSS VL: QPMLTQSPSASASLGASVKLTCTLSSQHSTYTIEWYQQQPGKGPRYLMELKKEGSHSTGDGIPDRFSGSSSGAERYLTISSLQSEDEADYYCGVGLTIKEQFVYVFGGGTKLTVL
1.2 fold	35.4 pM	25.6 nM	0.39	0.01	0.18 nM				anti-CD33 antibody 6C7H53 (antibody, V domains shown, VH/VL only) VH: EVQLVESGGGLVQPGGSLRLSCAGSGFTFSNYEMNWVRQAPGKGLEWVAEIRLKSNNYVTNYAASVKGRFTISRDDSKNSVYLQMNSLKTEDTGVYYCTRAGYYVPFAYWGQGTLVTVSS VL: QPVLTQSPSASASLGASVKLTCTLSSQHSTYTIEWYQQQPEKGPRYLMELKKEGSHSTGDGIPDRFSGSSSGAERYLTISSLQSEDEADYYCGVGVTIKEQFVYVFGGGTKLTVL
1 fold	42.4 pM		0.08		0.19 nM				anti-CD33 antibody 6C7H51 (antibody, V domains shown, VH/VL only) VH: EVQLVESGGGLVQPGGSLRLSCAASGFTFSEYAMLWVRQAPGKGLEWVGEIRLKSNNYVTNYAASVKGRFTISRDDSKNSVYLQMNSLKTEDTGVYYCTRAGYYVPFAYWGQGTLVTVSS VL: QPVLTQSPSASASLGASVKLTCTLSSQHSTYTIEWYQQQPEKGPRYLMELKKEGSHSTGDGIPDRFSGSSSGAERYLTISSLQSEDEADYYCGVGVTIKEQFVYVFGGGTKLTVL
1 fold	44.5 pM		0.31		0.15 nM				anti-CD33 antibody 6C7H45 (antibody, V domains shown, VH/VL only) VH: EVQLVESGGGLVQPGGSLRLSCAASGFTFSEYAMLWVRQAPGKGLEWVGEIRLKSNNYVTNYAASVKGRFTISRDDSKNSVYLQMNSLKTEDTGVYYCTRAGYYVPFAYWGQGTLVTVSS VL: QLMLTQSPSASASLGASVKLTCTLSSQHSTYTIEWYQQQPGKGPRYLMELKKEGSHSTGDGIPDRFSGSSSGAERYLTISSLQSEDEADYYCGVGHTIKEQFVYEFGGGTKLTVL
0.9 fold	49.8 pM		0.11		0.17 nM				anti-CD33 antibody 6C7H43 (antibody, V domains shown, VH/VL only) VH: EVQLVESGGGLVQPGGSLRLSCAASGFTFSEYDMLWVRQAPGKGLEWVGEIRLKSNNYVTNYAASVKGRFTISRDDSKNSVYLQMNSLKTEDTGVYYCTRAGYYVPFAYWGQGTLVTVSS VL: QLMLTQSPSASASLGASVKLTCTLSSQHSTYTIEWYQQQPGKGPRYLMELKKEGSHSTGDGIPDRFSGSSSGAERYLTISSLQSEDEADYYCGVGHTIKEQFVYEFGGGTKLTVL
0.8 fold	56.3 pM	1.19 nM	0.53	0.14	0.17 nM				anti-CD33 antibody 6C7H48 (antibody, V domains shown, VH/VL only) VH: EVQLVESGGGLVQPGGSLRLSCAGSGFTFSNYEMNWVRQAPGKGLEWVAEIRLKSNNYVTNYAASVKGRFTISRDDSKNSVYLQMNSLKTEDTGVYYCTRAGYYVPFAYWGQGTLVTVSS VL: QPMLTQSPSASASLGASVKLTCTLSSQHSTYTIEWYQQQPGKGPRYLMELKKEGSHSTGDGIPDRFSGSSSGAERYLTISSLQSEDEADYYCGVGLTIKEQFVYVFGGGTKLTVL
1.1 fold	39.4 pM		0.08		0.2 nM				anti-CD33 antibody 6C7H42 (antibody, V domains shown, VH/VL only) VH: EVQLVESGGGLVQPGGSLRLSCAASGFTFSEYDMLWVRQAPGKGLEWVGEIRLKSNNYVTNYAASVKGRFTISRDDTKNSVYLQMNSLKTEDTGVYYCTRAGYYVPFAYWGQGTLVTVSS VL: QPMLTQSPSASASLGASVKLTCTLSSQHSTYTIEWYQQQPGKGPRYLMELKKEGSHSTGDGIPDRFSGSSSGAERYLTISSLQSEDEADYYCGVGLTIKEQFVYVFGGGTKLTVL
1.6 fold	27 pM	4.87 nM	0.36	0.04	0.21 nM				anti-CD33 antibody 6C7H38 (antibody, V domains shown, VH/VL only) VH: EVQLVESGGGLVQPGGSLRLSCAASGFTFSEYAMLWVRQAPGKGLEWVGEIRLKSNNYVTNYAASVKGRFTISRDDSKNSVYLQMNSLKTEDTGVYYCTRAGYYVPFTYWGQGTLVTVSS VL: QPMLTQSPSASASLGASVKLTCTLSSQHSTYTIEWYQQQPGKGPRYLMELKKEGSHSTGDGIPDRFSGSSSGAERYLTISSLQSEDEADYYCGVGLTIKEQFVYVFGGGTKLTVL
